Broadly, the EC50 (read off the curve) is the midpoint of the concentration-response curve. A high value points to lower potency in that assay. One may read the IC50 as the point on the concentration scale where inhibition reaches its midpoint.

From patent US20190352413A1 (KYMAB, published 2019) come the findings set out here.

Assay [1] has as its target T1, Cyno OPG-Fc (cynomolgus).
T1 construct: The entry begins with a signal peptide ('usually cleaved upon expression'); also called cyno OPG (in-house)
In words: SPR (ProteOn XPR36), antibody captured on anti-mouse IgG, OPG-Fc as analyte, 25 C, 1:1 model. The procedure:
(§1) Affinity of secreted antibodies was assessed by testing hybridoma supernatants by Label-free surface plasmon resonance (SPR). This analysis was carried out on the ProteOn XPR36 (BioRad) array SPR machine. An anti-mouse IgG capture surface was created on a GLC biosensor chip using amine coupling of an anti-mouse IgG from GE Healthcare. Test antibodies were captured on this surface and human, rat and cyno OPG (in-house) was used as the analyte at 256 nM, 64 nM, 16 nM, 4 nM and 1 nM for Ky3 (15F11), Ky4 (16G05), 5A06, 25F06, 15B08 and 10B07 and at a single concentration of 100 nM for Ky1 (6D07) and Ky2 (8C10). The assay was carried out at 25° C. using HBS-EP (Teknova H8022). Buffer alone was used to reference the binding sensorgrams. The data was analysed using the 1:1 model inherent to the ProteOn XPR36 analysis software.

Assay [2] deals with T2, Rat OPG-Fc (rat).
T2 construct: The entry begins with a signal peptide ('usually cleaved upon expression'); also called rat OPG (in-house)
Described as above. The procedure:
as §1

Assay [3] addresses T3, Human OPG-Fc (human).
T3 construct: also called hOPG-Fc; human OPG (in-house)
The description is as above. Here is the method:
as §1

Assay [4] deals with T3, Human OPG-Fc. The experiment in a line: HTRF competition, purified antibody titrated from 120 nM against 4 nM OPG-Fc and 16 nM TRAIL-Flag; remaining specific binding of TRAIL. (Time-resolved FRET reads energy transfer from a long-lived donor to a nearby acceptor.)
Assay [5] concerns the target T1, Cyno OPG-Fc. The experiment in a line: SPR (ProteOn XPR36), antibody captured on anti-mouse IgG, OPG-Fc as analyte, 25 C, 1:1 model; apparent affinity.
Assay [6] concerns the target T2, Rat OPG-Fc. The assay is described as above.
The target of assay [7] is T3, Human OPG-Fc. Described as above.
Assay [8] addresses T1, Cyno OPG-Fc. The experiment in a line: SPR (ProteOn XPR36); CNROR = cannot resolve off rate, no KD given.
Assay [9] addresses T3, Human OPG-Fc. The experiment in a line: cell-based or functional assay.
The target in assay [10] is T3, Human OPG-Fc. In words: HTRF competition, purified antibody titrated from 120 nM against 20 nM OPG and 55.6 nM RANKL-647; remaining specific binding of RANKL.
Assay [11] has as its target T3, Human OPG-Fc. In words: HTRF competition, purified antibody titrated from 120 nM against 4 nM OPG-Fc and 16 nM TRAIL-Flag; inhibition of TRAIL binding.
Assay [12] concerns the target T1, Cyno OPG-Fc. The experiment in a line: SPR (ProteOn XPR36), antibody captured on anti-mouse IgG, OPG-Fc as analyte; CNROR = cannot resolve off rate, no KD given.

T3 sequence (chain, as listed by the source limits assumed): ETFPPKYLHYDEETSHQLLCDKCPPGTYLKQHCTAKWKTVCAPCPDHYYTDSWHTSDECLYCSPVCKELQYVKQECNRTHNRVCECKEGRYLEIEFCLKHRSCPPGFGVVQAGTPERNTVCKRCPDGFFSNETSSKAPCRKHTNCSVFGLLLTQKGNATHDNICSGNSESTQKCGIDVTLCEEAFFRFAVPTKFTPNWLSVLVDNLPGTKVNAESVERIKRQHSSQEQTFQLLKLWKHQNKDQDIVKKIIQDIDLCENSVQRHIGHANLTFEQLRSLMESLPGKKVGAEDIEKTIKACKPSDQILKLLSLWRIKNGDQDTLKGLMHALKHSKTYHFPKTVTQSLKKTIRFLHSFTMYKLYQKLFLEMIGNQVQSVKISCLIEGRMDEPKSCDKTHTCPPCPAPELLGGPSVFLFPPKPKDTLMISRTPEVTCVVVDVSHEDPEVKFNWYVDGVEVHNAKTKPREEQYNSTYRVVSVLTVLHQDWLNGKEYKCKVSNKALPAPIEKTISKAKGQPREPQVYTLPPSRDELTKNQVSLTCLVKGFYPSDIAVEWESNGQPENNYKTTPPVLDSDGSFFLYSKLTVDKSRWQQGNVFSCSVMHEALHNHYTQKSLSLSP
T2 sequence (chain, as listed by the source limits assumed): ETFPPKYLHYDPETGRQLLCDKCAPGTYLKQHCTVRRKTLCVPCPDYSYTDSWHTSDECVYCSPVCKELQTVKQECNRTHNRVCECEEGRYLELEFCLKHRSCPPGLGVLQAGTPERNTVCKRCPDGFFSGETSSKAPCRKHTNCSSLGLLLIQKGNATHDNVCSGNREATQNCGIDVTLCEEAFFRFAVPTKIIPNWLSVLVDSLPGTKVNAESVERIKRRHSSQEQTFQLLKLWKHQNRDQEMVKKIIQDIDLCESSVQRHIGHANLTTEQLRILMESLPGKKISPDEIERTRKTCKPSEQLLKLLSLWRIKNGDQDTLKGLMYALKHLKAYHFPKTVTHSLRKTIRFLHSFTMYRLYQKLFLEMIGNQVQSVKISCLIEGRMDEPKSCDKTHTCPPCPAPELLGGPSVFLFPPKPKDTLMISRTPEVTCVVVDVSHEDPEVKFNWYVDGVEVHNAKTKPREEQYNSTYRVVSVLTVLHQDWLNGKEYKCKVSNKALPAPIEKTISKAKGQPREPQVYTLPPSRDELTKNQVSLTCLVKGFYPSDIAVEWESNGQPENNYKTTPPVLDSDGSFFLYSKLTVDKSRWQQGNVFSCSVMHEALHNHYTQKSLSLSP
T1 sequence (chain, as listed by the source limits assumed): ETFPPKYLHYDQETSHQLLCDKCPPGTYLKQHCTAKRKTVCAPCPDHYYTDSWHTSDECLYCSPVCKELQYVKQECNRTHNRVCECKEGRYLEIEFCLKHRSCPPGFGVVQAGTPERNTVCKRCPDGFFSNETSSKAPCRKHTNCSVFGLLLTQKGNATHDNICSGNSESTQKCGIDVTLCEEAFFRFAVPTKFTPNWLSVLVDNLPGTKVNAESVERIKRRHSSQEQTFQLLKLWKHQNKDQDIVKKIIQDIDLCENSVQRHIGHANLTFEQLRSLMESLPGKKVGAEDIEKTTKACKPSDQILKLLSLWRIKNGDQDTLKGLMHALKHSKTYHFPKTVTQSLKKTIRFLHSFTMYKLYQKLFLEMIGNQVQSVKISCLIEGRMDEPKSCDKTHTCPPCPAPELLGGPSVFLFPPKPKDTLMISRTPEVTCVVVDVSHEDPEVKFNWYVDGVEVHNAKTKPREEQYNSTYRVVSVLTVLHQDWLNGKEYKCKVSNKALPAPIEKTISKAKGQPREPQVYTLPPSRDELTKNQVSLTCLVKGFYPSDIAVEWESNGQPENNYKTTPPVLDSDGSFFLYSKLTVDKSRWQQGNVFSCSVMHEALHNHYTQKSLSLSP

B1: Ky1 (6D07) (antibody, V domains shown)
VH: QVQLVQSGAEVKKPGASVKVSCKASGYTFTSYGISWVRQAPGQGLEWMGWISAYNGNTNYKQKLQGRVTMTTDTSTSTAYMELRSLRSDDTAVYYCARGGSGRYYPWGQGTLVTVSS
VL: DIQMTQSPSSLSASVGDRVTITCRASQGIRNDLGWYQQIPGKAPKRLIYDASSLQSGVPSRFSGSGSGTEFTLTISSLQPEDFATYYCLQHNSYPFTFGPGTKVDIK
notes: Campaign KM059; In SPR and HTRF it was tested as hybridoma material (human variable regions, mouse constant regions; captured on anti-mouse IgG)
With B1, the Kd is 14.8 nM in the assay with Cyno OPG-Fc [1]; 1.35 nM in the assay with Rat OPG-Fc [2]; 0.17 nM with Human OPG-Fc [3]; 14.8 nM with Cyno OPG-Fc [5]; 1.35 nM with Rat OPG-Fc [6]; 0.17 nM with Human OPG-Fc [7]. Also, in the assay with Human OPG-Fc [4], the “% Max Specific binding” value came out at 4.8%.

B2: Ky2 (8C10) (antibody, V domains shown)
VH: EVQLVESGGGLVQPGRSLRLSCAASGFTFDDYAMHWVRQGPGKGLEWVSSISWNSGRIDYADSVKGRFTISRDNAKNSLYLQMNRLRAEDTALYYCAKDGFYDILTGSFFDYWGQGILVTVSS
VL: DIQMTQSPSSLSASVGDRVTITCRASQSISSYLNWYHQEPGKAPNLLIYGASSLQSGVPSRFSGSGSGTDFTLTISSLQPEDFATYYCQQSYSAPPEWTFGQGTKVEIK
notes: as for B1
Regarding B2, the Kd with Rat OPG-Fc [2] stood at 7.39 nM; with Human OPG-Fc [3], 0.1 nM; with Rat OPG-Fc [6], 7.39 nM; with Human OPG-Fc [7] it was 0.1 nM. Further, the “% Max Specific binding” value in the assay with Human OPG-Fc [4] came to 20.1%. For the same molecule, the binding result with Cyno OPG-Fc [8] was “binds”.

B3: Ky3 (15F11) (antibody, V domains shown)
VH: EVQLVESGGGLVQPGGSLRLSCAASGFTFGRYDMNWVRQTTGKGLEWVSAIGTAGDTYYPGSVKGRFTISRENAKNSLYLQMNSLRPGDTAVYYCARARPYYYDSGSYYHAPFDYWGQGTLVTVSS
VL: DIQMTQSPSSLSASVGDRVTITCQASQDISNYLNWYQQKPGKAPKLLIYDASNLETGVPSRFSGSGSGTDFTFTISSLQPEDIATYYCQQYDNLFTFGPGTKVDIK
notes: Campaign KM058; In SPR and HTRF it was tested as hybridoma material (human variable regions, mouse constant regions; captured on anti-mouse IgG)
As for B3, the 50% effective concentration (EC50 (read off the curve)) with Human OPG-Fc [9] is about 10 nM. Further, the Kd in the assay with Rat OPG-Fc [2] and with Rat OPG-Fc [6] was 0.12 nM throughout. Moreover, the “% Max Specific binding” value with Human OPG-Fc [10] amounted to 27.1%. For the same molecule, the IC50 with Human OPG-Fc [11] worked out at 1.4 nM. The binding result in the assay with Cyno OPG-Fc [8] is given as “binds”.

B4: Ky5 (15H06) (antibody, V domains shown)
VH: not shown
VL: AIQMTQSPSSVSASVGDRVTITCRASQGISSWLAWYQQKPGKAPKLLIYAASSLHSGVPSRFSGSGSETDFTLTISSLHPEDFATYYCQQSNSFPLTFGGGTKVEIK
notes: as for B3
Take B4: the Kd is 0.36 nM with Rat OPG-Fc [2], 0.18 nM with Human OPG-Fc [3], 0.36 nM in the assay with Rat OPG-Fc [6] and 0.18 nM with Human OPG-Fc [7]. In the assay with Cyno OPG-Fc [12], the binding result is listed as “binds”. Further, the “% Max Specific binding” value in the assay with Human OPG-Fc [10] was 86.6%; in the assay with Human OPG-Fc [4], 55.8%.

B5: Ky4 (16G05) (antibody, V domains shown)
VH: EVQLVESGGGLVQPGRSLRLSCAVSGFTFDDYAMHWVRQPPGKGLEWVSGISWNSGSIDYADSVKGRFTISRDNAKNSLYLQMNSLRAEDTALYYCAKDYYYDSSAYVLFDYWGQGTLVTVSS
VL: DIQMTQSPSSLSASVGDRVIITCRASQSISSYLNWYQQKPGKAPELLIYGASSLQSGVPSRFSGSGSGTDFTLTISSLQPEDFATYYCQQSFSTPLTFGGGTKVEIK
notes: as for B3
On to B5, for which the Kd with Cyno OPG-Fc [1] worked out at 0.166 nM; in the assay with Rat OPG-Fc [2], 1.3 nM; with Human OPG-Fc [3], 0.18 nM; in the assay with Cyno OPG-Fc [5], 0.17 nM; with Rat OPG-Fc [6], 1.3 nM; with Human OPG-Fc [7], 0.18 nM. The figures for the “% Max Specific binding” value in the assay with Human OPG-Fc [10] and with Human OPG-Fc [4] were 65.1% and 50.7%, respectively.
